# Results from IntAct's records for PubMed 11565033.
# B1: F-box/WD repeat-containing protein 7 (Drosophila melanogaster (Fruit fly)), Q9VZF4 (parent)
# chain: MERGCPAASSESVTSAGERTQSAVTSSTSTWVKSQASTSRKTEASEESGLGAVDAEVGAGREAFVSMSTLREDVEDVCVSSNSQHGFAVVLDDESSTFEISSSNSLPTSAGAASTVGVVAVDDSSSTDTLNGGHPDLGHPASSEHSRQGFFNEDNEDPPVVCLINDDDDDEEPEPEEDDEEELIEDEDEDAVDIVTGAISCPNTSQLALADGTIMAADGSKIFLETPVVEEAQPHPGQVVTTGSQSELTGKPKRLSDEFLLGEEDQAENLALGRCIKSEPVNPVDDNPSEGDDGATCFSLHDRLMSVRLKQMSLTANTVSNPSPAASANAAAPEEASTSNSSSTSSSALSRADIESMDLIERRDFETEQRLTGGIILRTSSMVSQNKLNLSLIKSMAGGSKAANGSGTANSDDWPSSSNGRTVSSDSKYTYKDLSTTPTSSRKYTNSRLSKSTAKLNLGSSLGASSCSQHRSGSSSTSKSMESSTSCTGAARTDVYTNTNSNDYPSLAPTTSGSSTSGGSCQQDQEENVSASVSYSSVGSQTSQESGCSRTTAINPTAACSTGSACLGDSQASTSASTSSGAGASNRCQYATTSTTKAARQVNASAQTQERFLTRSNPPAASGAGSVGANPTASVRQRRNGSSDVVHLEVVVEEGAGGGDGGVVEPGDFSAEEPWANCDEENNCSDLEEICTCQNGNGSSYGGSNASLSETFDMDAMDPDEPISLSLSSASAGFTEYSLTNPSSLMSHQRKRKFNEGRLLDGGDYSVTISSSGEVGGPGSGVSDNCRKRIAYDFASTPRSSQHLGPTAVLSVTPSSHLTSSTPGSALGRRTPRSVPSRDNPPPELQHWLAQFQRWSHVERLLALDRLIDHCDPSQVRHMMKVIEPQFQRDFISLLPRELALFVLSYLEPKDLLRAAQTCRSWRFLCDDNLLWKEKCRKAQILAEPRSDRPKRGRDGNMPPIASPWKAAYMRQHIIEMNWRSRPVRKPKVLKGHDDHVITCLQFSGNRIVSGSDDNTLKVWSAVNGKCLRTLVGHTGGVWSSQMSGNIIISGSTDRTLKVWDMDSGACVHTLQGHTSTVRCMHLHGSKVVSGSRDATLRVWDIEQGSCLHVLVGHLAAVRCVQYDGKLIVSGAYDYMVKIWHPERQECLHTLQGHTNRVYSLQFDGLHVVSGSLDTSIRVWDVETGNCKHTLMGHQSLTSGMELRQNILVSGNADSTVKVWDITTGQCLQTLSGPNKHHSAVTCLQFNSRFVVTSSDDGTVKLWDVKTGDFIRNLVALDSGGSGGVVWRIRANDTKLICAVGSRNGTEETKLMVLDFDVEGACVKCS
# partner: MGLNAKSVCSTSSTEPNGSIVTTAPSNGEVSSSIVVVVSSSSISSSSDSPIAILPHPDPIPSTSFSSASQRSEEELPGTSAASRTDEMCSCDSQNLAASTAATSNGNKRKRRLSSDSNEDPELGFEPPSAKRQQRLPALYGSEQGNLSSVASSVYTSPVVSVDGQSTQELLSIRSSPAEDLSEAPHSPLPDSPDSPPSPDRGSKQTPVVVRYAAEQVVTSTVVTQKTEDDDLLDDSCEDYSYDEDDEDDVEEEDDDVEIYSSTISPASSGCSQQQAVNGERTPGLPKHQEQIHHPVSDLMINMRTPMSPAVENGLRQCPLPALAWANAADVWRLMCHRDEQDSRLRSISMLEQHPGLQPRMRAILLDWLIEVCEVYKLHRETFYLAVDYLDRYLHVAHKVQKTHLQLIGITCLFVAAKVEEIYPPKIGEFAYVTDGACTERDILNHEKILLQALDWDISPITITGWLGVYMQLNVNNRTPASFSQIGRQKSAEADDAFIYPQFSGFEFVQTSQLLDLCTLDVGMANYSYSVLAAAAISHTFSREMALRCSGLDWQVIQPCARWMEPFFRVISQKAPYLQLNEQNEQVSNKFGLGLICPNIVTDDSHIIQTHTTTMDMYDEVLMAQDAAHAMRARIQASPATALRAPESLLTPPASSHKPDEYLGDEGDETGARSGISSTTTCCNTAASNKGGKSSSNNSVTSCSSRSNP
# Variants of: B1
# Settings: with ccne_drome CycE
row,effect of a mutation on the interaction,Variant
1,decreasing interaction,G1131E
